Assay results: PMC4694547

Target: HydABCD unit of the synthetic Caldanaerobacter subterranus NADH-dependent [FeFe]-hydrogenase complex (with HydC^His) (Caldanaerobacter subterranus subsp. tengcongensis)
Experiment: SEC-MALS; IMAC-purified enzyme on a MAbPac SEC-1 column, 50 mM Tris.HCl pH 7.5, 150 mM NaCl, 0.5 ml/min; peak fraction analysed by SDS-PAGE

stoichiometry N: 2
Substance: HydABCD unit of the synthetic Caldanaerobacter subterranus NADH-dependent [FeFe]-hydrogenase complex (with HydC^His)
